We go through 18 molecules from US11608374 (dated 2023).

Assay [1] addresses T1, mouse sclerostin (mouse).
T1 chain: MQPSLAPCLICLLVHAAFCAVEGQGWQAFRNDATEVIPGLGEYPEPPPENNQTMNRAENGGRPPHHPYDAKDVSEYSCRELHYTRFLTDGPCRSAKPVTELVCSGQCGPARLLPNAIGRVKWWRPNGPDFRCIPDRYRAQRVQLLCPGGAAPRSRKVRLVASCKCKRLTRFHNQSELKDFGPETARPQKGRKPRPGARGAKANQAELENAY
The assay is described as follows: SPR, pH 7.4, 37C.

Assay [2] concerns the target T1, mouse sclerostin. The assay is described as follows: SPR, pH 7.4 to 5.8, 37C. (In general: Surface plasmon resonance follows binding to a sensor surface in real time, without labels.)
The target in assay [3] is T2, cynomolgus sclerostin (cynomolgus monkey).
T2 chain: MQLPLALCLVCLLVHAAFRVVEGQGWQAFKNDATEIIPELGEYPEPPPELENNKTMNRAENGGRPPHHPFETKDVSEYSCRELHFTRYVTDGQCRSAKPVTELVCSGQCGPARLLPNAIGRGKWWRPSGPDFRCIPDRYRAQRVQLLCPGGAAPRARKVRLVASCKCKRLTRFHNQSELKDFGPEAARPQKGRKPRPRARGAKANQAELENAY
The assay can be described thus: SPR, pH 7.4.

In assay [4] the target is T3, human sclerostin (human).
T3 chain: T2 chain with A16T, Q93P, A152E, P184T, G201S
The assay can be described thus: SPR, pH 7.4.

For assay [5], the target named is T2, cynomolgus sclerostin. The assay can be described thus: SPR, pH 7.4 to 5.8.
Assay [6] deals with T3, human sclerostin. The assay can be described thus: SPR, pH 7.4 to 5.8.
The target in assay [7] is T1, mouse sclerostin. The assay can be described thus: SPR, pH 5.8, 37C.
The target in assay [8] is T2, cynomolgus sclerostin. The assay is described as follows: SPR, pH 5.8, 37C.
Assay [9] deals with T3, human sclerostin. The assay can be described thus: SPR, pH 5.8, 37C.
For assay [10], the target named is T2, cynomolgus sclerostin. The assay can be described thus: SPR, pH 7.4, 37C.
The target of assay [11] is T4, rat sclerostin (rat).
T4 chain: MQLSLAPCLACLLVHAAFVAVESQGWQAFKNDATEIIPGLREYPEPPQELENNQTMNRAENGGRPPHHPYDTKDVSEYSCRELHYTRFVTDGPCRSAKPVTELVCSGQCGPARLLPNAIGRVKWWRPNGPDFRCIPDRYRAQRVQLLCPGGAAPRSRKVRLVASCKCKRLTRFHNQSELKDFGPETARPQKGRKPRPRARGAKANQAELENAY
The assay can be described thus: SPR, pH 5.8, 37C.

The target of assay [12] is T3, human sclerostin. The assay can be described thus: SPR, pH 7.4, 37C.
In assay [13] the target is T4, rat sclerostin. The assay is described as follows: SPR, pH 7.4, 37C.

Numbering of substitutions follows the chain as printed.

B1: mabB_pH1 (antibody, V domains shown)
VH: QVQLVQSGAEVKKPGASVKVSCKVSGFPIKHHFQHWVRQAPGKGLEWMGWSDPEIGDTEYASKFQGRVTMTEDTSTDTAYMELSSLRSEDTAVYYCATGDTTYKFDFWGQGTTVTVSS
VL: DIQMTQSPSSLSASVGDRVTITCKASQDVHTAVAWYQQKPGKAPKLLIYWASTRWTGVPSRFSGSGSGTDFTLTISSLQPEDFATYYCQQYHDYPWTFGGGTKVEIK
In general, Kd refers to the equilibrium constant for the complex coming apart. A lower Kd goes with tighter binding. What is called koff is a measure of how fast the partners let go of each other. Higher therefore signals fast dissociation. The molecule B1 had a dissociation constant (Kd) in assay [1] of 138 pM. Besides, the koff in [2] turned out to be 0.0206 s⁻¹.

B2: mabB_pH4 (antibody, V domains shown)
VH: B1 VH
VL: B1 VL with H92S, P95H
For B2, the Kd in [1] is 782 pM.

B3: mabB//mabA_pH2 (antibody)
chain 1: B1 VH with H31D, H32T
chain 2: B1 VL with H92S
chain 3: EVQLVQSGAEVKKPGASVKVSCKASGYTFTDYNMHWVRQAPGQGLEWMGEINPNSGHAGYNQKFKGRVTMTTDTSTSTAYMELRSLRSDDTAVYYCARLHYDHIYDDWYFDVWGQGTTVTVSS
chain 4: DIQMTQSPSSLSASVGDRVTITCRASHDISNYLNWYQQKPGKAPKLLIYYTSRLLSGVPSRFSGSGSGTDFTLTISSLQPEDFATYYCQQGDTLPYTFGGGTKVEIK
B3 displayed a koff in [2] of 0.0186 s⁻¹.

B4: amH848/bsH656/abL152 (antibody)
chain 1: EVQLVQSGAEVKKPGASVKVSCKASGYTFTSYNMHWVRQAPGKGLEWMGEIMPHSGRYGLKQKFKGRVTMTRDTSISTAYMELSRLRSDDTAVYYCARLEYSEIYDDWYFDVWGQGTTVTVSS
chain 2: B3 chain 4 with H27E, D28G, S30H, N31D, Y32A, N34A, Y50W, T51A, R53T, L55E
chain 3: B1 VH with F27Y, P28T, I29L, K30T, H32T, Q34M, F107Y, T113L
chain 4: B3 chain 4 with H27E, D28G, S30H, N31D, Y32A, N34A, Y50W, T51A, R53T, L55E
Take B4: the koff came to 0.000606 s⁻¹ in [3], 0.000515 s⁻¹ in [4], 0.374 s⁻¹ in assay [5] and 0.222 s⁻¹ in assay [6].

B5: mabB//mabA_pH3 (antibody)
chain 1: B1 VH with H31D, H32T
chain 2: B1 VL with H92S
chain 3: B3 chain 3 with N54H, H103D, Y105H
chain 4: B3 chain 4
With B5, in assay [2], the koff is 0.0516 s⁻¹.

B6: bsH656/abL152 (antibody, V domains shown)
VH: B1 VH with F27Y, P28T, I29L, K30T, H32T, Q34M, F107Y, T113L
VL: B3 chain 4 with H27E, D28G, S30H, N31D, Y32A, N34A, Y50W, T51A, R53T, L55E
Regarding B6, the koff amounted to 0.0108 s⁻¹ in assay [3] and 0.0104 s⁻¹ in assay [4].

B7: amH848/bsH638/abL152 (antibody)
chain 1: B4 chain 1
chain 2: B3 chain 4 with H27E, D28G, S30H, N31D, Y32A, N34A, Y50W, T51A, R53T, L55E
chain 3: B1 VH with F27Y, P28T, I29L, K30T, H32T, Q34M, T58H, F107Y, T113L
chain 4: B3 chain 4 with H27E, D28G, S30H, N31D, Y32A, N34A, Y50W, T51A, R53T, L55E
As to B7, the koff in assay [3] came to 0.000606 s⁻¹; in assay [4] it was 0.000596 s⁻¹; in assay [5] it was 0.227 s⁻¹; in assay [6], 0.1 s⁻¹.

B8: bsH638/abL152 (antibody, V domains shown)
VH: B1 VH with F27Y, P28T, I29L, K30T, H32T, Q34M, T58H, F107Y, T113L
VL: B3 chain 4 with H27E, D28G, S30H, N31D, Y32A, N34A, Y50W, T51A, R53T, L55E
Consider B8, for which the koff came to 0.0107 s⁻¹ in assay [3] and 0.0093 s⁻¹ in assay [4].

B9: amH852/bsH656/abL152 (antibody)
chain 1: B4 chain 1 with S31D, R72T, I76T, S84R, R85S
chain 2: B3 chain 4 with H27E, D28G, S30H, N31D, Y32A, N34A, Y50W, T51A, R53T, L55E
chain 3: B1 VH with F27Y, P28T, I29L, K30T, H32T, Q34M, F107Y, T113L
chain 4: B3 chain 4 with H27E, D28G, S30H, N31D, Y32A, N34A, Y50W, T51A, R53T, L55E
With B9, the koff in [3] worked out at 0.000405 s⁻¹; in assay [4], 0.000419 s⁻¹; in assay [5], 0.116 s⁻¹; in assay [6], 0.0593 s⁻¹.

B10: mabB//mabA_pH1 (antibody)
chain 1: B1 VH with H31D, H32T
chain 2: B1 VL with H92S
chain 3: B3 chain 3 with H103D
chain 4: B3 chain 4
In assay [2], B10 showed a koff of 0.0347 s⁻¹.

B11: mabB_pH5 (antibody, V domains shown)
VH: B1 VH with D100H
VL: B1 VL with H92S, P95H
On to B11, for which binding in assay [1] was characterised by a dissociation constant (Kd) of 589 pM.

B12: amH852/bsH638/abL152 (antibody)
chain 1: B4 chain 1 with S31D, R72T, I76T, S84R, R85S
chain 2: B3 chain 4 with H27E, D28G, S30H, N31D, Y32A, N34A, Y50W, T51A, R53T, L55E
chain 3: B1 VH with F27Y, P28T, I29L, K30T, H32T, Q34M, T58H, F107Y, T113L
chain 4: B3 chain 4 with H27E, D28G, S30H, N31D, Y32A, N34A, Y50W, T51A, R53T, L55E
In the case of B12, the koff in [3] amounted to 0.000387 s⁻¹; in assay [4], 0.000418 s⁻¹; in assay [5], 0.0598 s⁻¹; in assay [6], 0.028 s⁻¹.

B13: mabB (antibody, V domains shown)
VH: B1 VH with H31D, H32T
VL: B1 VL with H92S
For B13, the values for the Kd in [7] and in [1] were 260 pM and 14.1 pM, respectively.

B14: mabA (antibody, V domains shown)
VH: B3 chain 3 with H57G, H100G, H103D
VL: B3 chain 4 with H27Q
Consider B14, for which the Kd in assay [8] worked out at 1400 pM; in [9], 1440 pM; in assay [10], 75.3 pM; in assay [11], 0.00307 pM; in assay [12], 80 pM; in assay [1], 0.00302 pM. For the same molecule, the Kd in [13] amounted to 0.0938 pM.

B15: amH848/abL152 (antibody, V domains shown)
VH: B4 chain 1
VL: B3 chain 4 with H27E, D28G, S30H, N31D, Y32A, N34A, Y50W, T51A, R53T, L55E
In the case of B15, the figures for the koff in assay [3] and in assay [4] were 0.00854 s⁻¹ and 0.00946 s⁻¹, respectively.

B16: amH852/abL152 (antibody, V domains shown)
VH: B4 chain 1 with S31D, R72T, I76T, S84R, R85S
VL: B3 chain 4 with H27E, D28G, S30H, N31D, Y32A, N34A, Y50W, T51A, R53T, L55E
As to B16, the off-rate (koff) in [3] was found to be 0.0019 s⁻¹; in [4] it was 0.00257 s⁻¹; in assay [5] it was 0.107 s⁻¹; in [6], 0.0882 s⁻¹.

B17: mabA_pH4 (antibody, V domains shown)
VH: B3 chain 3 with N54H, H103D, Y105H
VL: B3 chain 4 with S30H
With B17, the Kd in [1] worked out at 1730 pM. Besides, the koff in assay [2] turned out to be 0.0418 s⁻¹.

B18: mabA_NpH3 (antibody, V domains shown)
VH: B3 chain 3 with H57G, H100G, H103D
VL: B3 chain 4 with H27Q, T51H, Q89H
For B18, the Kd in assay [11] is 45.4 pM; in [13], 42.6 pM.
